Measurements: patent publication US11274126B2, “pH-sensitive cyclic peptides” (University of Rhode Island Board of Trustees, priority 2016, dated 2022)

Assays:
HeLa cells [1] = test: Fluorescent microscopy with Trypan Blue quenching; assay type: cell-based, Human; settings: 5 μM, 30 min at pH 6.2 versus 7.4
Method: HeLa cells (8,000 cells per dish) were seeded in the center of a 35-mm dish with a 10-mm glass-bottom window coated with collagen (MatTek Corp). Next day cells were incubated with 5 μM of FITC-labeled c[E4W5C] (SEQ ID NO: 5) peptide for 30 min in DMEM medium without FBS at pH 7.4 or 6.2. Cells were washed 5 times at pH 7.4 and 0.4% Trypan Blue was added for 5 min ( 1/10 of the total volume). Fluorescent images were acquired with a Retiga CCD camera (Qimaging) mounted to an inverted Olympus IX71 microscope (Olympus America, Inc.).

HeLa cells [2] = assay type: cell-based, Human; settings: up to 4 μM, 3 h at pH 7.4 or 6.0, viability at 48 h
Method: HeLa cells were loaded in the wells of 96-well plates (5,000 cells per well) and incubated overnight. Growth medium was replaced with the medium without FBS pH 6.0 or pH 7.4 containing increasing amounts of peptide-amanitin construct (0.5, 1, 2, and 4 μM). The construct was removed after 3 h. After 48 h of incubation in standard growth medium, a colorimetric reagent (CellTiter 96 AQueous One Solution Assay, Promega) was added for 1 h followed by measuring absorbance at 490 nm to assess cell viability. All samples were prepared in triplicate.

HeLa cells [3] = settings: at the concentrations used, treatment of 2-4 h; previous report; cited from earlier work
4T1 breast tumors = test: Ex vivo fluorescence imaging of tumor and organs after IV Alexa546-peptides; assay type: in vivo, mice; settings: after IV administration
Method: 4T1 breast tumors were established by subcutaneous injection of 4T1 cells (8×10^5 cells/0.1 mL/flank) in the right flank of adult female BALB/c mice (about 19-22 g weight) obtained from Harlan Laboratories. When tumors reached about 6 mm in diameter single tail vein injections of 100 μl of 40 μM Alexa546-peptides were performed. […] At 4 h post-injection euthanization and necropsy was performed followed by ex vivo imaging of tumor, kidneys, liver, lungs and muscle. Mean fluorescence intensity of tumor and organs was calculated using Kodak software.

[4] = Steady-state tryptophan fluorescence of peptides in buffer and with POPC liposomes; assay type: physicochemical; settings: for S, normalized area under the spectra, Pep-PC, pH3: POPC liposomes pH 3; for S, normalized area under the spectra, Pep-PC, pH3 / S, normalized area under the spectra, Pep-PC, pH8: normalized to peptide at pH 8 without POPC; for S, normalized area under the spectra, Pep-PC, pH8: POPC liposomes pH 8; for λmax, Pep-PC, pH3: in the presence of POPC liposomes at pH 3; for λmax, Pep-PC, pH3 / λmax, Pep-PC, pH8 / λmax, maximum position of the fluorescence spectrum, Pep, pH8: excitation 280 nm; for λmax, Pep-PC, pH8: in the presence of POPC liposomes at pH 8; for λmax, maximum position of the fluorescence spectrum, Pep, pH8: peptide in phosphate buffer pH 8, no liposomes
Method: Liposomes such as Large Unilamellar Vesicles (LUVs) were prepared by extrusion. POPC, 1-palmitoyl-2-oleoyl-sn-glycero-3-phosphocholine (Avanti Polar Lipids), or a mixture of POPC with 0.5% of 18:1 NBD-PE, 1,2-dioleoyl-sn-glycero-3-phosphoethanolamine-N-7-nitro-2-1,3-benzoxadiazol-4-yl ammonium salt (Avanti Polar Lipids) were dissolved in chloroform, desolvated on a rotary evaporator, and dried under high vacuum for several hours. The phospholipid film was then rehydrated in 10 mM phosphate buffer pH 8.0, vortexed until the lipid bilayer was completely dissolved, and repeatedly (15-21 times) extruded through the membranes with 50 nm pore sizes to obtain LUVs.
Freshly prepared peptides and POPC vesicles were mixed to have 5 μM of a peptide and 1.25 mM of lipids in the final solution. Steady-state fluorescence measurements were carried out on a PC1 spectrofluorometer (ISS, Inc.) under temperature control at 25° C. Tryptophan fluorescence was excited at 280 nm (there is no Phe or Tyr in the peptides) and recorded with the excitation and emission slits set at 1 nm. The polarizers in the excitation and emission paths were set at the “magic” angle (54.7o from the vertical orientation) and vertically (0°), respectively. Steady state CD measurements were carried out in MOS 450 spectropolarimeter (Bio-Logic, Inc.) with the same concentrations of peptide and lipids as it were used in fluorescence measurements.

[5] = Dual quenching (acrylamide / 10-DN); assay type: physicochemical; settings: POPC liposomes; for percentage of fluorescence quenching, Pep-PC + 10-DN pH3 / percentage of fluorescence quenching, Pep-PC + AC pH3: pH 3; for percentage of fluorescence quenching, Pep-PC + 10-DN pH8 / percentage of fluorescence quenching, Pep-PC + AC pH8: pH 8; for percentage of fluorescence quenching, Pep-PC + AC pH3 / percentage of fluorescence quenching, Pep-PC + AC pH8: acrylamide
Method: POPC liposomes without and with 10% of the lipids replaced by 10-doxylnonadecane (10-DN) (Avanti Polar Lipids) were prepared in 10 mM citrate-phosphate buffer pH 8.0. Peptides and POPC liposomes were mixed to generate final concentrations of 7 μM peptide and 2.1 mM POPC without and with 10-DN. […] To the samples of POPC liposomes containing no 10-DN, acrylamide (Sigma-Aldrich) was added to have a final concentration of 235 mM in solution. Concentration of peptides in all samples was kept constant. To observe quenching of tryptophan fluorescence by 10-DN or acrylamide, the tryptophan fluorescence was recorded as described above. The appropriate POPC blanks were measured and subtracted from the measured spectra before analysis. The percentage of quenching was calculated.
To establish localization of the peptides within a lipid bilayer of the membrane, a dual quenching assay (Caputo G A & London E (2003) Biochemistry 42(11):3265-3274) was used (FIG. 6 and Table 8). Effective quenching of fluorescence by acrylamide would occur only for tryptophan residues exposed to polar parts of outer or inner leaflets of the bilayer. At the same time, tryptophan residues located in the middle of a membrane would be effectively quenched by 10-DN. The result of the dual quenching assay allows the determination of whether tryptophan residues are located in the middle of a membrane or close to the polar headgroups of the bilayer. […] Therefore, FRET assays were also performed (McIntyre J C & Sleight R G (1991) Biochemistry 30(51):11819-11827; Clausell et al. (2006) J Phys Chem B 110(9):4465-4471) (FIG. 7). First, POPC liposomes symmetrically-labeled with NBD dye were prepared. Then, membrane-impermeable dithionite was used to modify chemically and quench the fluorescence of NBD at the outer leaflet of the bilayer followed by removal of dithionite by gel filtration. As a result, asymmetrically-labeled liposomes with NBD only at the inner leaflet were obtained. The c[E4W5C] […] All other peptides are located at the outer leaflet of the bilayer at pH 8. Among c[(WE)4WC] (SEQ ID NO: 2), c[(WE)5WC] (SEQ ID NO: 3), and c[(WE)3WC] (SEQ ID NO: 1) peptides, the peptide with smallest cycle, c[(WE)3WC]

Row | Molecule | S, normalized area under the spectra, Pep-PC, pH3 [4] | S, normalized area under the spectra, Pep-PC, pH8 [4] | λmax, Pep-PC, pH3 [4] | λmax, Pep-PC, pH8 [4] | λmax, maximum position of the fluorescence spectrum, Pep, pH8 [4] | percentage of fluorescence quenching, Pep-PC + 10-DN pH3 [5] | percentage of fluorescence quenching, Pep-PC + 10-DN pH8 [5] | percentage of fluorescence quenching, Pep-PC + AC pH3 [5] | other results
1 | FITC-labeled peptide: c[E4W5C] peptide conjugated with Fluorescein-5-maleimide (cyclo(EEEEWWWWWC); also: conjugated with fluorescein-5-maleimide, site not given here) |  |  |  |  |  |  |  |  | fluorescent signal of cells after Trypan Blue quenching, low pH compared to normal pH (HeLa cells [1]): higher level of the fluorescent signal
2 | c[E4W5C]-GMBS-amanitin (cyclo(EEEEWWWWWC); also: GMBS-linked amanitin conjugate) |  |  |  |  |  |  |  |  | cell death / cytotoxic effect of peptide-amanitin construct (HeLa cells [2]): reduced significantly at both pHs
3 | CC[C@H](C)[C@@H]1NC(=O)CNC(=O)[C@@H]2Cc3c([nH]c4cc(O)ccc34)[S+]([O-])C[C@@H](NC(=O)CNC1=O)C(=O)N[C@@H](CC(N)=O)C(=O)N1C[C@H](O)C[C@H]1C(=O)N[C@@H]([C@@H](C)[C@@H](O)CO)C(=O)N2 (stereo partly drawn) [amanitin, alpha-amanitin] |  |  |  |  |  |  |  |  | cell death by amanitin alone (HeLa cells [3]): does not induce cell death
4 | N=C(N)NCCC[C@@H]1NC(=O)[C@H](CS)NC(=O)[C@H](Cc2c[nH]c3ccccc23)NC(=O)[C@H](Cc2c[nH]c3ccccc23)NC(=O)[C@H](Cc2c[nH]c3ccccc23)NC(=O)[C@H](Cc2c[nH]c3ccccc23)NC(=O)[C@H](Cc2c[nH]c3ccccc23)NC(=O)[C@H](CCCNC(=N)N)NC(=O)[C@H](CCCNC(=N)N)NC(=O)[C@H](CCCNC(=N)N)NC1=O [c[R4W5C]] |  |  |  |  |  |  |  |  | accumulation in tumor and other organs (4T1 breast tumors): very minimal
5 | l(CW(EW)4) (CWEWEWEWEW) | 1.6 ± 0.4 | 2.3 ± 0.4 | 339.8 ± 0.6 nm | 346.6 ± 0.7 nm | 353.0 ± 0.7 nm | 31% | 20% | 56% | percentage of fluorescence quenching, Pep-PC + AC pH8 [5]: 81%
6 | c[(WE)5WC] (WEWEWEWEWEWC; cyclic) | 2.1 ± 0.3 | 1.5 ± 0.3 | 341.2 ± 0.4 nm | 346.7 ± 1.2 nm | 350.3 ± 0.2 nm | 40% | 1.3% | 68% | 
7 | c[(WE)3WC] (WEWEWEWC; cyclic) | 1.7 ± 0.3 | 0.9 ± 0.1 | 341.7 ± 0.2 nm | 349.1 ± 0.7 nm | 351.0 ± 0.2 nm | 47% | 6% | 63% | percentage of fluorescence quenching, Pep-PC + AC pH8 [5]: 83%
